Reference: patent US20060088549A1, “Chimeric virus vaccine” (priority 2004, published 2006)
“Also recorded” adds a separate entry of the source.

Legend:
2F5 = conditions: cited from earlier work; for binding/affinity to 2F5 relative to the LELDKWASL peptide: Tian, 2003
[1] = target: Biotin-conjugated …-NH2 (HIV-1); test: direct ELISA, IgG on immobilized biotinylated …; conditions: scale: reciprocal dilution of 1 mg/ml IgG at OD450 of 0.5
[2] = target: HRV14:HIV-1 gp41 […] chimeric virus 14-C1000-1; test: cell-based or functional assay
[3] = target: HRV14:HIV-1 gp41 […] chimeric virus 44-BN30000-9; test: cell-based or functional assay
[4] = target: HRV14:HIV-1 gp41 […] chimeric virus 44-B64-12; test: cell-based or functional assay
[5] = target: HRV14:HIV-1 gp41 […] chimeric virus 44-C4000-4 (human rhinovirus type 14) (UniProt P03303); test: cell-based or functional assay
[6] = target: HRV14:HIV-1 gp41 […] chimeric virus 64-C32-3; test: cell-based or functional assay
[7] = target: HRV14:HIV-1 gp41 […] chimeric virus 14-C4000-1 (human rhinovirus type 14) (UniProt P03303); test: cell-based or functional assay
[8] = target: HRV14:HIV-1 gp41 […] chimeric virus 64-B32-4; test: cell-based or functional assay
[9] = target: HRV14:HIV-1 gp41 […] chimeric virus 22-AN15000-8; test: cell-based or functional assay
[10] = target: HRV14:HIV-1 gp41 […] chimeric virus 14-B128-22; test: cell-based or functional assay
[11] = target: HRV14:HIV-1 gp41 […] chimeric virus 44-BN7500-4; test: cell-based or functional assay
[12] = target: HRV14:HIV-1 gp41 […] chimeric virus 64-B32-3; test: cell-based or functional assay
[13] = target: HRV14:HIV-1 gp41 […] chimeric virus 14-C512-3; test: cell-based or functional assay
[14] = target: HRV14:HIV-1 gp41 […] chimeric virus 14-B128-23; test: cell-based or functional assay
[15] = target: HRV14:HIV-1 gp41 […] chimeric virus 64-C16-2; test: cell-based or functional assay
[16] = target: HRV14:HIV-1 gp41 […] chimeric virus 44-B4000-13; test: cell-based or functional assay
[17] = target: HRV14:HIV-1 gp41 […] chimeric virus 64-B256-2; test: cell-based or functional assay
[18] = target: HRV14:HIV-1 gp41 […] chimeric virus 44-B64-14; test: cell-based or functional assay
[19] = target: HRV14:HIV-1 gp41 […] chimeric virus 14-B64-5; test: cell-based or functional assay
[20] = target: HRV14:HIV-1 gp41 […] chimeric virus 14-C4000-14; test: cell-based or functional assay
[21] = target: HRV14:HIV-1 gp41 […] chimeric virus 44-B256-2; test: cell-based or functional assay
[22] = target: HRV14:HIV-1 gp41 […] chimeric virus 44-B64-4; test: cell-based or functional assay
[23] = target: HRV14:HIV-1 gp41 […] chimeric virus 14-C512-2; test: cell-based or functional assay
[24] = target: HRV14:HIV-1 gp41 […] chimeric virus 14-B128-12; test: cell-based or functional assay
[25] = target: HRV14:HIV-1 gp41 […] chimeric virus 24-AN15000-3; test: cell-based or functional assay
[26] = target: HRV14:HIV-1 gp41 […] chimeric virus 44-BN30000-2; test: cell-based or functional assay

Question: For Ac-CENEQELLELDKWASL-NH2 [Linear-1], which “binding/affinity to 2F5 relative to the LELDKWASL peptide” value (2F5) is on record?
Answer: higher affinities to 2F5

Question: Which “binding/affinity to 2F5 relative to the LELDKWASL peptide” value (2F5) does the source give for “Ac-CNEQELLEKDKWADL-NH2 (lactam (positions not given here); also: lactam bridge between underlined K and D, places not given here) [Lac-1, constrained peptide with a lactam bridge between K and D residues]” here?
Answer: higher affinities to 2F5; also recorded: two times more tightly

Question: Which “binding to 2F5 in an ELISA relative to the shorter ELDKWAS peptide” value (2F5; Tian et al., 2002) does the source give for LELDKWASL here?
Answer: ~100 fold

Question: With human mAb 2F5 (antibody) as the substance, how does the … binding [1] read?
Answer: 2400

Question: What about the 2F5 IC50, microtiter neutralization assay [2] of the same substance?
Answer: 1.5 µg/mL

Question: And the 2F5 IC50, microtiter neutralization assay [3]?
Answer: 0.02 µg/mL

Question: And the 2F5 IC50, microtiter neutralization assay [4]?
Answer: 0.21 µg/mL

Question: And the 2F5 IC50, microtiter neutralization assay [5]?
Answer: 0.66 µg/mL

Question: What about the 2F5 IC50, microtiter neutralization assay [6] of the same substance?
Answer: 0.05 µg/mL

Question: And the 2F5 IC50, microtiter neutralization assay [7]?
Answer: 0.98 µg/mL

Question: And the 2F5 IC50, microtiter neutralization assay [8]?
Answer: 0.49 µg/mL

Question: What about the 2F5 IC50, microtiter neutralization assay [9] of the same substance?
Answer: 8.2 µg/mL

Question: And the 2F5 IC50, microtiter neutralization assay [10]?
Answer: 0.57 µg/mL

Question: And the 2F5 IC50, microtiter neutralization assay [11]?
Answer: 0.01 µg/mL

Question: What about the 2F5 IC50, microtiter neutralization assay [12] of the same substance?
Answer: 0.05 µg/mL

Question: What about the 2F5 IC50, microtiter neutralization assay [13] of the same substance?
Answer: 3 µg/mL

Question: What about the 2F5 IC50, microtiter neutralization assay [14] of the same substance?
Answer: 5.9 µg/mL

Question: And the 2F5 IC50, microtiter neutralization assay [15]?
Answer: 0.07 µg/mL

Question: What about the 2F5 IC50, microtiter neutralization assay [16] of the same substance?
Answer: 0.24 µg/mL

Question: And the 2F5 IC50, microtiter neutralization assay [17]?
Answer: 0.23 µg/mL

Question: What about the 2F5 IC50, microtiter neutralization assay [18] of the same substance?
Answer: 0.16 µg/mL

Question: And the 2F5 IC50, microtiter neutralization assay [19]?
Answer: 0.29 µg/mL

Question: And the 2F5 IC50, microtiter neutralization assay [20]?
Answer: 0.64 µg/mL

Question: And the 2F5 IC50, microtiter neutralization assay [21]?
Answer: 0.31 µg/mL

Question: And the 2F5 IC50, microtiter neutralization assay [22]?
Answer: 0.06 µg/mL

Question: What about the 2F5 IC50, microtiter neutralization assay [23] of the same substance?
Answer: 0.05 µg/mL

Question: What about the 2F5 IC50, microtiter neutralization assay [24] of the same substance?
Answer: 0.49 µg/mL

Question: What about the 2F5 IC50, microtiter neutralization assay [25] of the same substance?
Answer: 1.5 µg/mL

Question: And the 2F5 IC50, microtiter neutralization assay [26]?
Answer: 0.01 µg/mL
